Blank lines part the entries; values can stand above or below the substance they belong to.
Assays:
[1] = biological target: IA^b -Ea protein bound by added cOVA peptide (murine; chicken) (UniProt P01012)
[2] = biological target: IA^b -Ea protein bound by added cOVA peptide (murine; chicken) (UniProt P01012); remark: listed apart in the source
[3] = biological target: IA^b protein (membrane-bound, without covalent peptide); test: inferred from IL-2 production by BO.97.10 with fibroblasts and added cOVA peptide
[4] = biological target: IA^b protein (membrane-bound, without covalent peptide); test: inferred from IL-2 production by BO.97.10 with M12.C3 cells and added cOVA peptide
[5] = biological target: IA^b -Ea protein (membrane-bound IA^b with IEα^d peptide (56-73) joined by a linker to IAβ^b) (murine); test: as above
[6] = biological target: IA^d -OVA protein (soluble IA^d αβ dimer with cOVA peptide (327-339) joined by a linker to IAβ^d) (murine)
[7] = biological target: IE^kd -MCC protein (soluble IE^kd αβ dimer with MCC peptide (91-103) joined by a linker to IEβ^k) (murine)

- IL-2 production in the presence of cOVA peptide (M12.C3 cells) (fold less IL-2 production) [1]: 10
- IL-2 production in the presence of cOVA peptide (fibroblasts) (fold less IL-2 production) [2]: 10
Substance: BO.97.10 T hybridoma cells (TCR)

- percent of the IA^b -Ea protein bound by IEα^d peptide [3]: 90%
- percent of the IA^b -Ea protein with IEα^d bound to the binding site [4]: 90%
Substance: IEα^d Peptide (56-73)

- percent of the IA^b -Ea protein bound by cOVA peptide [5]: 10%
Substance: cOVA Peptide (327-339) (from UniProt P01012)

- digestion of the complex as assessed by SDS-PAGE [6]: > 80%
- digestion of the complex as assessed by SDS-PAGE [7]: > 80%
Substance: thrombin (enzyme)

— US5820866
